Experimental data: patent publication US7807387B2, “Biological agent that causes IL-6 receptor release” (Meyer Pharmaceuticals LLC, priority 2003, dated 2010)

Assays:
[1] = tested on: carrageenan-induced paw edema; test: Carrageenan-induced paw edema; assay type: in vivo, Sprague Dawley rats
Description: Based on the standard model (Winter et al., Proc Soc Exp Biol Med 111:544, 1962; Hansra et al., Inflammation 24:141, 2000), the experiment was performed as follows. Male Sprague Dawley rats were randomized by weight into three treatment groups. The animals were administered MP8 or control solution subcutaneously, or indomethacin by mouth. One hour later, they were injected in the left hind paw with a sterile solution of 1% carrageenan suspension in water, in order to induce swelling. Three hours later, the volume of the injected paw was measured by water displacement in a water plethysmograph (mean±SEM; 10 animals per group).
Male Sprague Dawley rats were administered with test protein or indomethacin (anti-inflammatory control), and then challenged in a hind footpad with carrageenan, as in Example 12.

p55 or p75 TNF receptor = conditions: cited from earlier work
p55 TNF Receptor = p55 TNF Receptor (Homo sapiens, UniProt P19438); test: FRET peptide cleavage assay, p55 TNF receptor peptide; assay type: biochemical; conditions: Zn++ 0.1 mM, Ca++ 2 mM, corrected for EDTA, 37° C. for 3 hours
Description: Cytokine-specific proteolytic activity can rapidly be quantified by Fluorescence Resonance Energy Transfer (FRET). Peptides having the amino acid sequence of the TNF Receptor or other protein substrates are labeled at opposite ends with a fluorescence emitter and a fluorescence quencher. The peptide is then incubated with a source of receptor cleaving enzyme, and fluorescence is measured. The quenching group normally absorbs fluorescence from the emitter. But enzymatic cleavage of the peptide decouples the quenching group, and fluorescence emission increases proportionally.
The peptides used as substrates in the cleavage assay were taken from the known sites of proteolytic cleavage of the whole protein. The peptides were labeled with the fluorescence emitter (Edans-●) at the C-terminal, and the quenching hapten (Dabcyl-▴) at the N-terminal.
The assay is conducted in the presence of the metal cations Zn^++ (0.1 mM) and Ca^++ (2 mM), and corrected for cleavage in the presence of EDTA (20 mM). Dependence on divalent cations confirms that the enzyme activity measured in this assay is a metalloprotease. The assay mixture also contains a cocktail of protease inhibitors and bovine albumin. Cleavage is measured as the net change in fluorescence emission after incubating the enzyme with the peptide at 37° C. for 3 hours. […]

Isoelectric point = assay type: physicochemical
LPS-induced septic shock = test: LPS/galactosamine-induced septic shock model; assay type: in vivo, Balb/c mice; conditions: up to 40 μg one hour before 10 μg LPS and 15 mg galactosamine
Description: A classic model for determining effectiveness of agents against cytokine-mediated inflammation is endotoxin-induced septic shock (Morrison et al., J Infect Dis 162:1063, 1990).
The septic shock experiment was conducted as follows. Female Balb/c mice were randomized by weight into 6 treatment groups. Sepsis was induced by injecting 10 μg LPS and 7 mg galactosamine in the lateral or dorsal caudal vein. Some of the groups were pretreated with 50,000 FU of MP8 simultaneously or 3 hours in advance of the LPS challenge to determine whether there was a protective effect.
FIG. 8 is a Kaplan-Meier survival curve, showing the mortality in each of the treatment groups in the study. Without any treatment or challenge, there is no effect on the animals, and the line stays at the top. Life-compromising challenge causes the line to fall to the bottom of the graph in a step-wise fashion as each animal succumbs. Treatment that is protective against the challenge maintains the line near the top of the graph.
The enzyme was administered in a volume of 110 μL at one hour before the LPS challenge.
Stability of the clinical effect of MP8 was determined in the septic shock model. Female Balb/c mice were injected with 300,000 FU of MP8 that had been stored for 4 days at −70° C., or 7 days at 4° C. One hour later, the mice were challenged with 10 μg LPS and 7 mg galactosamine as before.
In this example, durability of receptor cleavage in vivo was determined by treating animals subcutaneously up to three days in advance with 300,000 FU of MP8. The mice were then challenged with […] LPS and 7 mg galactosamine in the usual fashion.
Sepsis was induced in Balb/c mice by administering 10 μg LPS and […] galactosamine, as in Example 3. Randomized groups were pretreated with up to 40 μg MP8-FL2 one hours in advance of the LPS challenge.

TNF receptor = test: Cell surface cleavage assay, release of TNF receptor isoforms by enzyme immunoassay; assay type: cell-based; conditions: 25 μg protein with 2.5×10^6 cells; (treated—untreated)/untreated
Description: To determine cell surface cleavage activity, 25 μg of MP8-FL2 was combined with 2.5×10^6 cells. Release of both TNF receptor isoforms was determined by enzyme immunoassay as (treated—untreated)/untreated.

COc1ccc2c(c1)c(CC(=O)O)c(C)n2C(=O)c1ccc(Cl)cc1 [indomethacin, reference compound]
inhibition of edema formation ([1]; given one hour before carrageenan, paw volume three hours later, MP8 subcutaneously, indomethacin by mouth): 49%

B1: ADAM-10: metalloprotease (protein, UniProt O14672 214-748, looked up)
Disintegrin and …: TTSAEKNTCQLYIQTDHLFFKYYGTREAVIAQISSHVKAIDTIYQTTDFSGIRNISFMVKRIRINTTADEKDPTNPFRFPNIGVEKFLELNSEQNHDDYCLAYVFTDRDFDDGVLGLAWVGAPSGSSGGICEKSKLYSDGKKKSLNTGIITVQNYGSHVPPKVSHITFAHEVGHNFGSPHDSGTECTPGESKNLGQKENGNYIMYARATSGDKLNNNKFSLCSIRNISQVLEKKRNNCFVESGQPICGNGMVEQGEECDCGYSDQCKDECCFDANQPEGRKCKLKPGKQCSPSQGPCCTAQCAFKSKSEKCRDDSDCAREGICNGFTALCPASDPKPNFTDCNRHTQVCINGQCAGSICEKYGLEECTCASSDGKDDKELCHVCCMKKMDPSTCASTGSVQWSRHFSGRTITLQPGSPCNDFRGYCDVFMRCRLVDADGPLARLKKAIFSPELYENIAEWIVAHWWAVLLMGIALIMLMAGFIKICSVHTPSSNPKLPPPKPLPGTLKRRRPPQPIQQPQRQRPRESYQMGHMRR
cleavage of p55 or p75 TNF receptor (p55 or p75 TNF receptor): do not efficiently cleave

B2: MDC-9: metalloprotease (protein, UniProt Q13443 29-819, looked up)
Disintegrin and …: AARPGFQQTSHLSSYEIITPWRLTRERREAPRPYSKQVSYVIQAEGKEHIIHLERNKDLLPEDFVVYTYNKEGTLITDHPNIQNHCHYRGYVEGVHNSSIALSDCFGLRGLLHLENASYGIEPLQNSSHFEHIIYRMDDVYKEPLKCGVSNKDIEKETAKDEEEEPPSMTQLLRRRRAVLPQTRYVELFIVVDKERYDMMGRNQTAVREEMILLANYLDSMYIMLNIRIVLVGLEIWTNGNLINIVGGAGDVLGNFVQWREKFLITRRRHDSAQLVLKKGFGGTAGMAFVGTVCSRSHAGGINVFGQITVETFASIVAHELGHNLGMNHDDGRDCSCGAKSCIMNSGASGSRNFSSCSAEDFEKLTLNKGGNCLLNIPKPDEAYSAPSCGNKLVDAGEECDCGTPKECELDPCCEGSTCKLKSFAECAYGDCCKDCRFLPGGTLCRGKTSECDVPEYCNGSSQFCQPDVFIQNGYPCQNNKAYCYNGMCQYYDAQCQVIFGSKAKAAPKDCFIEVNSKGDRFGNCGFSGNEYKKCATGNALCGKLQCENVQEIPVFGIVPAIIQTPSRGTKCWGVDFQLGSDVPDPGMVNEGTKCGAGKICRNFQCVDASVLNYDCDVQKKCHGHGVCNSNKNCHCENGWAPPNCETKGYGGSVDSGPTYNEMNTALRDGLLVFFFLIVPLIVCAIFIFIKRDQLWRSYFRKKRSQTYESDGKNQANPSRQPGSVPRHVSPVTPPREVPIYANRFAVPTYAAKQPQQFPSRPPPPQPKVSSQGNLIPARPAPAPPLYSSLT
cleavage of p55 or p75 TNF receptor (p55 or p75 TNF receptor): do not efficiently cleave

B3: MP8-FL2: full length MP8 (SEQ. ID NO:53) without HIS tag, produced from E. coli strain MP820 (protein, listed as Homo sapiens)
chain: MCVHPGACLPHVGVSWAEFPGHFSVELSSLLVRNVNYEIPSLKKQIAKCQQLQQEYSRKEEECQAGAAEMREQFYHSCKQYGITGENVRGELLALVKDLPSQLAEIGAAAQQSLGEAIDVYQASVGFVCESPTEQVLPMLRFVQKRGNSTVYEWRTGTEPSVVERPHLEELPEQVAEDAIDWGDFGVEAVSEGTDSGISAEAAGIDWGIFPESDSKDPGGDGIDWGDDAVALQITVLEAGTQAPEGVARGPDALTLLEYTETRNQFLDELMELEIFLAQRAVELSEEADVLSVSQFQLAPAILQGQTKEKMVTMVSVLEDLIGKLTSLQLQHLFMILASPRYVDRVTEFLQQKLKQSQLLALKKELMVQKQQEALEEQAALEPKLDLLLEKTKELQKLIEADISKRYSGRPVNLMGTSL
cleavage of p55 TNF receptor (R1) peptide (p55 TNF Receptor): caused cleavage | paw swelling ([1]; challenge in hind footpad with carrageenan as in Example 12): significantly prevented paw swelling | Isoelectric Point - By isoelectric focusing (Isoelectric point): 5.6 | protection against septic shock (LPS-induced septic shock): protected the mice in a dose-dependent fashion | cleavage and release of TNF receptor from the cell surface (TNF receptor): cause cleavage and release of TNF receptor, with preference for the R1 (p55) isoform
